Experiment: yeast display, Sf9 membrane polyspecificity reagent, FACS + sequencing; frameworks hold sequencing errors
Outline: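 Nanobodies came from a synthetic yeast display library in Saccharomyces cerevisiae BJ5465, induced with galactose for 36–48 hours and stained for 1 hour at 4 °C with 10% biotinylated, detergent-solubilized Sf9 membrane reagent. Cells were enriched on streptavidin microbeads and then FACS-sorted, with low and high (top ~1%) gates set on anti-HA fluorescence for expression and streptavidin fluorescence for reagent binding. Each polyreactivity label reflects the gate a clone came from. Genes were amplified by colony PCR, sequenced by MiSeq 2 × 250 and filtered by CDR length.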

| Sequence | polyreactivity (PSR sort gate) |
| --- | --- |
| QVQLVESGGGLVQAGGSLRLSCAASGSIFIQYAMGWYRQAPGKERELVAAINTSGGRTYYADSVKGRFTISRDNAKNTVYLLMNSLKPEDTAVYYCNADHFGWPWRVRILEDDYWGQGTQVTVSS | low polyreactivity |
| QDQLVESGGGLVQAGGSLRFSCAASGRIFTYYTMGWYRQAPGKERELVARITFSAGRTYYADSVKGRFTISRDNAKNTVYLQMNSLKPEDTAVYYCAARSYHYRNYYWGQGTQVTVSS | high polyreactivity |
| QVQLVESGGVLVQAGASLRLSCAASGITFVTYAMGWYRQAPGKERELVADISSSGGSSYYADSVKGRFTISLDNAKNTVYLQMNSLKPEDTAVYYWAALATFYPEFDYWGQGTQVTVSS | low polyreactivity |
| QVQLVESGGGLVQAGGSLRLSCAASGNIFIYNAMGWYRQAPGKERELVASITYSGDSTYYADSVKGRFTISRDNAKNTVYLQMNSLKPEDTAVYFCAAQGYGWWYDYWGQGSQVTVSS | low polyreactivity |
| QVQLVESGGGLGQAGGSLRLSCAASGLIFFFYAMGWYRQAPGKERELVASISGGGITYYADSVKGRFTISRDNAKNTVYLQMYSLKPEDTAVIKNDFWGQGTQVTVSS | low polyreactivity |
| QVQLVESGGGLVQAGGSLRLSCAASGGTFYAYAMGWYRQAPGKERELVAAITSGGRTYYADSVKGRFTISRDNAKNTVYLQMNSLKPEDTAVYYCAAKYFRGVKRDYWGQGTQVTVSS | high polyreactivity |
| QVQLVESGGGLVQAGGSLRLSCAASGRTFGGNAMGWYRQAPGKERELVAAISARAGSTYYADSVKGRFTISRDNAKNTVYLQMNSLKPEDTAVYYCAARRYAYTGGYWGQGTQVTVSS | high polyreactivity |
| QFQLVESGGGLVQAGGSLRLSCPAYGSNLSRYAMGWYRQSPGKVRELVATITRRGGSTFYADSVKGRFTISRDNAKNTVYLQMNSLKPDDTADYYCAVGRLFWGQGTQVTVSS | low polyreactivity |
| QVQLVESGGGLVQAGGSLRLSCAASGLTFWYYAMGWYRQAPGKERELVAAIDWSGASTYYADSVKGRFTISRDNAKNTVYLQMYSLKPEDTAVYYCNTVYYIGDDYWGQGTQVTVSS | high polyreactivity |
| QVQLVESGGGLVQAGGTLRLSCAASGRTFGWYAMGWYRQAPGKERELVASITQRGGRTYYADSVKGRFTISRDNAKNTVYLQMNSLKPEDTAVYYCAAKTSPGMYYWGQGTQVTVSS | high polyreactivity |
| QVQLVESGGGLVQAGGSLRLSCAASGIIFDYYTMGWYRQAPGKARELVAGITRSGGRTYYADSVKGRFTISRDNAKNTVYLQMNSLKPEETAGYYCAAVQRRTYVKYESWGQGTQVTVSS | high polyreactivity |
| QVQLVESGGGLVQAGGSLRLSCAASGSTFVYYAMGWYRQAPGKEREFVAAISTNGGSTYYADSVKGRYTISRDNAKNTVYLQMNSLKPEDTAVYYCAARWYWGQGTQGTVSS | high polyreactivity |
| QVQLEESGGGLVQAGGSLSLSCAASGSILIYNAMGWYRQAPGKERELVAGISRRGASTYYADSVKGRFTISRDNEKKTVYLQMNRLKPEDTAVYYCAALGKYIVAWSGDYWGQGTQVTVSS | low polyreactivity |
| QVQLVESGGGLVQAGGSLRLSCAASGSTLYWNAMGWYRQAPGKERELVASITSSGGSTYYADSVKGRFTISRDNAKNTVYLQMNSLKPEDTAVYYCATESWWRYSEYYYWGQGTQVTVSS | low polyreactivity |
| QVHLVESGGGLVQAGGSLSLSCDASGRTFYENAMGWYRQAPGKERELVAAISQSSGSTYYADSVKGRFTISRDNAKNTVYLQMNSLKPEDTAVYYCAAVQGANYYNEFDYWGQGTQVTVSS | high polyreactivity |
| QVQLVESGGGLVQAGGSLRLSCAASGSIFGRYTMGWYRQAPGKERELVAAISWGGGSTYYADSVKGRFTISRDNAKNSVYLQMNSLKPEDTAVYYCAADTYWAIDPIYDYWGQGTQVTVSS | low polyreactivity |
| QDQLVESGGGLVQAGGSLRLSCAASGSTFTTNVMGWYRQAPGKERELVAAISWSSGSTYYADSVKGRFTISRDNAKNTDYLQMNSLKPEDTAVYYCAARLVIFYPYSRYYYWGQGTQVTVSS | high polyreactivity |
| QVQLVESGGRLVQAGGSLRLSCAASGSTIYGYAMGWYRQAPGKERELVATIRSGGSTYYADSVKGRFTISRDNAKNTVYLQMNCLIPEDTAVYYCAAKRWRGYGGGYSWGQGTQVTVSS | high polyreactivity |

From the nanobody polyreactivity screen of Harvey et al. (2022)
